The text below walks through data of article PMC2821021 (Biochemical and biophysical research communications, 2009).

The target in this experiment is T1, 1st beta propeller of human LRP5 (human, UniProt O75197 32-338).
T1 sequence (looked up): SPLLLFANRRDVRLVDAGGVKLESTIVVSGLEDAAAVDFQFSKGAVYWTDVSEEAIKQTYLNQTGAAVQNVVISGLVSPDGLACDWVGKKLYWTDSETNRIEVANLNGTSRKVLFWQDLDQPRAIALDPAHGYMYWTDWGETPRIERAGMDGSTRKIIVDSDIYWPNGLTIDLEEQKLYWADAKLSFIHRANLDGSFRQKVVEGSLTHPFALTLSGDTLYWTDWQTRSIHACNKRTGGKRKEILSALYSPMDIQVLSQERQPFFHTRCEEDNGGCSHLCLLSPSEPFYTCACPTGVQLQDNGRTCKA
Kind of experiment: SPR. Background: In SPR one partner is held on a chip, and binding of the other changes the refractive index at the surface.

B1: Recombinant insect cell-produced human sclerostin (natural protein, UniProt Q9BQB4 24-213, looked up)
chain: QGWQAFKNDATEIIPELGEYPEPPPELENNKTMNRAENGGRPPHHPFETKDVSEYSCRELHFTRYVTDGPCRSAKPVTELVCSGQCGPARLLPNAIGRGKWWRPSGPDFRCIPDRYRAQRVQLLCPGGEAPRARKVRLVASCKCKRLTRFHNQSELKDFGTEAARPQKGRKPRPRARSAKANQAELENAY
For B1, the binding result is given as “binds”.
